Biological target: soluble recombinant human gp39 (CD8-gp39 fusion protein) (murine; human)

CD40-Ig (modified by L234F, L235E and G237A in the immunoglobulin domain) (from UniProt P25942) (Fc fusion)
inhibition of shgp39/IF5 or shgp39/PMA driven tonsillar B cell proliferation: 50 % inhibition
